The text below walks through data of patent US20180037641A1.

pKd: −log10 of the molar value.

Assay [1] concerns the target recombinant mouse tau, longest isoform mTau40 (432 aa) (mouse) (UniProt P10637). The experiment in a line: SPR (Biacore), tau immobilised on CM-5 chip, antibody injected 0.78-400 nM.
The target of assay [2] is recombinant human tau, longest isoform hTau40 (441 aa) (human) (UniProt P10636). The assay is described as above.
The target of assay [3] is recombinant mouse tau, longest isoform mTau40 (432 aa) (mouse) (UniProt P10637). The experiment in a line: SPR (BIAcore 2000), tau immobilised on CM-5 chip, antibody injected 0.11-7.5 µg/ml, 1:1 Langmuir global fit.
Assay [4] addresses recombinant human tau, longest isoform hTau40 (441 aa) (human) (UniProt P10636). Described as above.
The target of assay [5] is P301S human tau, T34 isoform (1N4R), of P301S tg mice (line PS19) (human) (UniProt P10636). The experiment in a line: cell-based or functional assay.
Assay [6] deals with RD(LM)-YFP (UniProt P10636). Kind of assay: cell-based or functional assay.
The target of assay [7] is tau RD aggregates passing between HEK293 cells in the propagation assay (RD(LM) and RD(ΔK) constructs). The experiment in a line: cell-based or functional assay.
Assay [8] addresses RD(LM)-HA (UniProt P10636). The experiment in a line: cell-based or functional assay.

Sequence of recombinant mouse tau, longest isoform mTau40 (432 aa) (mouse) (P10637 other isoform, or with tags, fused parts or gaps limits assumed): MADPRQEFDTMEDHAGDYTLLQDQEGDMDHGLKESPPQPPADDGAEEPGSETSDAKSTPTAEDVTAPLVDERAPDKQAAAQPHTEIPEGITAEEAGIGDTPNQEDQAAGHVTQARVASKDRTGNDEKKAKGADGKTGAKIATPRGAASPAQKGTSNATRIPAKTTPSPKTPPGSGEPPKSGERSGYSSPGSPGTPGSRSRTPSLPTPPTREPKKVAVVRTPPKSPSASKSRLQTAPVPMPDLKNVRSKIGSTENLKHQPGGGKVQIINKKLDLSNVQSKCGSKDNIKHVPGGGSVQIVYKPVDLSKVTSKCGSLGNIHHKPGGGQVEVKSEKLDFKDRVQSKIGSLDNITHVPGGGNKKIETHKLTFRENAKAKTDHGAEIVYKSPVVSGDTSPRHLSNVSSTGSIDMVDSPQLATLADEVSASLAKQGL

As for HJ9.3 (antibody), the pKd in assay [1], in assay [2], in assay [3] and in assay [4] was 10.00 throughout. The koff in assay [1] is 9.16e-06 s⁻¹; in assay [2], 7.51e-06 s⁻¹; in assay [3] it was 9.16e-06 s⁻¹; in assay [4], 7.51e-06 s⁻¹. The kon in assay [1] turned out to be 86100 M⁻¹ s⁻¹; in assay [2] it was 75500 M⁻¹ s⁻¹; in assay [3], 86100 M⁻¹ s⁻¹; in assay [4] it was 75500 M⁻¹ s⁻¹. The same substance displayed an antibody concentration that significantly blocked uptake and seeding activity in assay [5] of 0.5 µg/mL. This substance gave a percentage of RD(LM)-YFP/mCherry dual positive cells (flow cytometry) in assay [6] of 1.31%. Moreover, the tau protein present in the cell medium (pull-down, Western blot) in assay [7] came out at 10 fold. For the same substance, the RD(ΔK)-YFP in the insoluble pellet fraction (detergent fractionation, Western blot) in assay [8] stood at 60 % decrease.

As for HJ9.4 (antibody), the pKd in assay [1] is 11.65; in assay [2] it was 8.16; in assay [3] it was 11.65; in assay [4], 8.16. Moreover, the koff in assay [1] was 5.1e-07 s⁻¹; in assay [2], 0.00107 s⁻¹; in assay [3] it was 5.1e-07 s⁻¹; in assay [4], 0.00107 s⁻¹. For the same substance, the kon in assay [1] was found to be 228000 M⁻¹ s⁻¹; in assay [2], 153000 M⁻¹ s⁻¹; in assay [3], 228000 M⁻¹ s⁻¹; in assay [4], 153000 M⁻¹ s⁻¹.

As usually defined, the pKd is −log10 of the Kd, conventionally taken in molar units. As usually defined, the koff is the rate constant with which the complex falls apart. By kon is commonly meant the second-order rate constant of association.
